pKd: −log10 of the molar value.

This passage reports Kd results from paper PMC8273494.

The target in this data set is hnRNP A1 internal_change (UniProt P09651). Briefly: SPR. The conditions noted are these: hnRNP A1 immobilized; very hard to regenerate; called non-special binding; phosphorothioate at all 30 linkages (stereorandom); SPR: 10 mM PBS (138 mM NaCl, 2.7 mM KCl, 10 mM Na2HPO4, 1.76 mM KH2PO4, 0.05% Tween-20), pH 7.4, 25 C, aptamer 0.39-50 nM; BLI: biotinylated aptamer on SA ….
Chain of hnRNP A1 internal_change (P09651 other isoform, or with tags, fused parts or gaps): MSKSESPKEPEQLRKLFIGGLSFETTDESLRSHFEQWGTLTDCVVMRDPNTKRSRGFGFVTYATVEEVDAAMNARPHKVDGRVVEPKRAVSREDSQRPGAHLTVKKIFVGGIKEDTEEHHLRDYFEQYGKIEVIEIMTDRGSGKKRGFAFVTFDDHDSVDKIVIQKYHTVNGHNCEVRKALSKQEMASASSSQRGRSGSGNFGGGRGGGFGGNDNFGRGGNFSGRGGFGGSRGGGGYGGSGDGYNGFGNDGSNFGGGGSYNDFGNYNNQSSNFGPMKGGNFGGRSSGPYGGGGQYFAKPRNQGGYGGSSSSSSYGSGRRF

TGTGGCGAGGTAGGTGGGGTGTGTGTGTATC [WW-20] had a pKd of 10.85.
